Measured values published in patent publication US20240002500A1 (GUANGDONG FAPON BIOPHARMA, published 2024).

T1: hTIGIT-hFc (human, UniProt Q495A1 22-141)
T1 construct: also called antigen protein hTIGIT-hFc; human TIGIT recombinant protein carrying a human Fc tag; not shown: human Fc tag
T1 sequence (looked up): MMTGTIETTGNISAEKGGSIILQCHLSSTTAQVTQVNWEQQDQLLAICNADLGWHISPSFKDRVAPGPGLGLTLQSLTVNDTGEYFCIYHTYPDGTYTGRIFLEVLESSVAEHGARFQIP

T2: full-length human TIGIT on cells (human, UniProt Q495A1 22-244)
T2 construct: whole, on cells; The same protein is used for CHO-hTIGIT, PBMC and NK92-hTIGIT; the cells are named under assay; also called CHO-hTIGIT; hTIGIT
T2 sequence (looked up): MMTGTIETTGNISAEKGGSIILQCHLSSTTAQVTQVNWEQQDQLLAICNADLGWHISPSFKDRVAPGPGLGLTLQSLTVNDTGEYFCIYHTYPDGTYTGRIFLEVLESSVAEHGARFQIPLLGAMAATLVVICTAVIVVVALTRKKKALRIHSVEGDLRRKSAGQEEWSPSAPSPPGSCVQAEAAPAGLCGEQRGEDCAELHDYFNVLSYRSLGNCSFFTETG

B1: 14Tigit-1-1 mouse monoclonal antibody (antibody, V domains shown)
VH: DVQLQESGPGLVKPSQSLSLTCTVTGYSITSDYAWNWIRQFPGNKLEWMGYISYSGSTRSNPSLKSRISITRDTSKNQFFLQLNSMTAEDTATYYCGGWEVRNYYAMDYWGQGTSVTVSS
VL: DIVMTQSHKFMSTSVGDRVSITCKASQHVSTAVAWYQQKPGQSPKLLIYSASYRYTGVPDRFTGSGSGTDFTFTISSVQAEDLAVYYCQQHYNTPWTFGGGTKLEIKR
notes: Mouse monoclonal antibody from hybridoma
B2: Tigit-5 mouse monoclonal antibody (antibody, V domains shown)
VH: QVQLQQPGAELVRPGASVKLSCKASGYSFTSYWMNWVKQRPGQGLEWIGMIRPSDSETRLNQMFKDKATLTVDKSSSTAYMQLSSPTSDDSAVYYCAGIHDYGHGAYWGQGTLVTVSA
VL: DIQMIQSPASLSVSVGETVTITCRASENIYSNLAWYQQKQGKSPQLLVYAASHLPDGVPSRFSGSGSGTQYSLKINSLQSEDFGSYYCQHFWGTPRTFGGGTKLEIKR
notes: as for B1
B3: 3Tigit-16 mouse monoclonal antibody (antibody, V domains shown)
VH: EVQLQQSGPELVKPGASVKMSCKASGFTFTDYFMDWVKQSRGASFEWIGRLNPNNGRTSYNQKFKGKATLTVDKSSSTAYMELNSLTSEDSAVYYCARGDLGRWYFDVWGAGTTVTVSS
VL: QIVLTQSPAIMSASPGEKVTMTCSASSSVSYMHWYQQKSGTSPKRWIYDTSKLASGVPTRFSGSGSGTSYSLTISSMEAEDAASYFCQQWSSNSLTFGAGTKLELKR
notes: as for B1
B4: 3Tigit-29 mouse monoclonal antibody (antibody, V domains shown)
VH: EVQLQQSGPELVKPGASVKISCKASGYTFTDYNMHWVKQSLGKSLEWIGYVNSFNGNTGYSQKFKSKVTLTVDRSSRTAYMDLRSLTSEDSAVFYCARSSRGGFAYWGQGTLVTVSA
VL: QIVLTQSPAIMSASPGEKVTMTCSASSSVSYMHWYQQKSGTSPKRWIYDTSKLASGVPARFSGSVSGTSYSLTISSMEAEDAATYYCQQWSSNSLTFGAGTKLELKR
notes: as for B1

Columns and labels:
hTIGIT-hFc [1] = target: T1, hTIGIT-hFc; assay: FACS blocking: antibody preincubated with hTIGIT-hFc, then CHO-hPVR cells; unit as printed on the axis, Log(uM); the same range is labelled nM in Fig. 4A and the method's top concentration of 40 µg/mL fits nM
Experimental: (§1) The CHO-engineered cells CHO-hPVR cells recombinantly expressing full-length human PVR were counted centrifugated at 300 g for 5 min, resuspended with an FCM buffer, the cells were added to the 96-well V-shaped plate; the volume of each cell added into a 96-well V-shaped plate was 2E+05 cell/well (being added in 50 μL/well); and incubation was performed in dark on ice for 30 min. Centrifugation (300 g/5 min) was performed; supernatant was discarded; 200 μL of the FCM buffer was added for washing once; centrifugation (300 g/5 min) was performed; and the supernatant was discarded. Secondary antibodies (PE anti-human IgG Fc, 1:500 dilution) were added to the 96-well V-shaped plate (in 100 μL/well); and incubation was performed in dark on ice for 30 min. Centrifugation (300 g/5 min) was performed; supernatant was discarded; 200 μL of the FCM buffer was added for washing once; centrifugation (300 g/5 min) was performed; and the supernatant was discarded. 100 μL of the 1×PBS was added for resuspending, and on-machine detection was performed.

[2] = target: T2, full-length human TIGIT on cells; assay: FACS titration on PBMC of healthy people (natural TIGIT), PE goat anti-mouse IgG; number as printed beside the name, the marker of the legend lies on the leftmost curve
Experimental: (§2) In order to verify that the prepared anti-human TIGIT antibody may effectively bind to naturally expressed TIGIT, the following experiments were specifically performed. PBMC cells in healthy people to be detected were counted, centrifuged at 300 g for 5 min, resuspended with an FCM buffer; and cell density was adjusted to 4E+06 cell/mL for later use. Samples to be detected (including a positive control antibody and a mouse monoclonal antibody) were diluted with the FCM buffer to 20 μg/mL, and then the FCM buffer was used to perform 3× serial dilutions of 12 concentration points; and the isotype control antibody was diluted with the FCM buffer to 20 μg/mL. According to an experimental design, in each well, 50 μL of the antibody and 50 μL of the cell (the volume of each cell added into a 96-well V-shaped plate being 2E+05 cell/well) were respectively added in the 96-well V-shaped plate; and incubation was performed in dark on ice for 30 min. Centrifugation (300 g/5 min) was performed; supernatant was discarded; 200 μL of the FCM buffer was added for washing once; centrifugation (300 g/5 min) was performed; and the supernatant was discarded. […] Centrifugation (300 g/5 min) was performed; supernatant was discarded; 200 μL of the FCM buffer was added for washing once; centrifugation (300 g/5 min) was performed; and the supernatant was discarded. […]

hTIGIT-hFc [3] = target: T1, hTIGIT-hFc; assay: FACS blocking: hTIGIT-hFc bound on U2-OS cells (PVR and CD112), then antibody, APC anti-human IgG Fc
Experimental: (§3) U2-OS cells to be detected (human osteosarcoma cells, naturally and highly expressing PVR and CD112 by means of detection) were counted; centrifugated at 300 g for 5 min; resuspended with an FCM buffer; and cell density was adjusted to 4E+06 cell/mL for later use. […] According to an experimental design, in each well, 50 μL of the antigen protein and 50 μL of the cell (the volume of each cell added into a 96-well V-shaped plate being 2E+05 cell/well) were respectively added in the 96-well V-shaped plate; and incubation was performed in dark on ice for 30 min. Centrifugation (300 g/5 min) was performed; supernatant was discarded; 200 μL of the FCM buffer was added for washing once; centrifugation (300 g/5 min) was performed; and the supernatant was discarded. The antibody was added to the 96-well V-shaped plate (in 100 μL/well); and incubation was performed in dark on ice for 30 min. Centrifugation (300 g/5 min) was performed; supernatant was discarded; 200 μL of the FCM buffer was added for washing once; centrifugation (300 g/5 min) was performed; and the supernatant was discarded. Secondary antibodies (APC anti-human IgG Fc, 1:500 dilution) were added to the 96-well V-shaped plate (in 100 μL/well); and incubation was performed in dark on ice for 30 min. […]

hTIGIT-hFc [4] = target: T1, hTIGIT-hFc; assay: FACS blocking: hTIGIT-hFc bound on U2-OS cells (PVR and CD112), then antibody, APC anti-human IgG Fc; first row of the table, row head not printed (fits the midpoint of the Tigit-5 curve; like table in Fig. 6A); unit from the x axis Log[µg/mL]
Experimental: as §3

hTIGIT-hFc [5] = target: T1, hTIGIT-hFc; assay: FACS blocking: antibody preincubated with hTIGIT-hFc, then CHO-hPVR cells, PE anti-human IgG Fc; blocked partner PVR on cells
Experimental: as §1

[6] = target: T2, full-length human TIGIT on cells; assay: FACS titration on PBMC of healthy people (natural TIGIT); table under the plot, unit taken from the x axis Log[µg/mL]
Experimental: as §2

Binder	IC50 (read off the curve) (hTIGIT-hFc [1]) [nM]	EC50 [2] [nM]	IC50 (hTIGIT-hFc [3]) [nM]	IC50 (hTIGIT-hFc [4]) [µg/mL]	IC50 (read off the curve) (hTIGIT-hFc [5]) [nM]	EC50 [6] [µg/mL]
B1	~1	0.179	2.52			
B2				0.335	~1	
B3					~1	0.0247
B4					~1	0.0217
